Measured values taken from US20190381183A1 (TEXAS A AND M UNIVERSITY SYSTEM, published 2019).

Legend:
[1] = target: T1, recombinant human HER2 (extracellular domain)-Fc fusion protein (human, UniProt P04626 23-652); assay: SPR (BIAcore T200), antibody injected over immobilized HER2-ECD-Fc, pH 5.8, apparent KD (FIG. 4B); pH 5.8
T1 construct: extracellular domain; Bought reagent; also called HER2-ECD-Fc; HER-extracellular domain (ECD)-Fc fusion; not shown: immunoglobulin Fc fragment of the bought fusion protein

[2] = target: T1, recombinant human HER2 (extracellular …); assay: SPR, antibody injected over immobilized HER2-ECD-Fc, apparent equilibrium dissociation constant, pH 7.4
[3] = target: T1, recombinant human HER2 (extracellular …); assay: SPR, antibody injected over immobilized HER2-ECD-Fc, apparent equilibrium dissociation constant, pH 7.0
[4] = target: T1, recombinant human HER2 (extracellular …); assay: SPR, antibody injected over immobilized HER2-ECD-Fc, apparent equilibrium dissociation constant, pH 5.8
[5] = target: T1, recombinant human HER2 (extracellular …); assay: SPR, antibody injected over immobilized HER2-ECD-Fc, apparent equilibrium dissociation constant, pH 6.5

B1: YS mutant of pertuzumab (Tyr55 to histidine in the light chain variable domain and Ser103 to histidine in the heavy chain variable domain) (antibody, human IgG1, V domains shown)
VH: QVQLQESGGGLVQPGGSLRLSCAASGFTFTDYTMDWVRQAPGKGLEWVADVNPNSGGSIYNQRFKGRFTLSVDRSKNTLYLQMNSLRAEDTAVYYCARNLGPHFYFDYWGQGTLVTVSS
VL: DIELTQSPSSLSASVGDRVTITCKASQDVSIGVAWYQQKPGKAPKLLIYSASYRHTGVPSRFSGSGSGTDFTLTISSLQPEDFATYYCQQYYIYPYTFGQGTKLEIKR
notes: Tested without conjugated drug in the SPR assay; also called YS variant of pertuzumab
Kd [1]: > 1500 nM
Kd [2]: 6.3 nM
Kd [3]: 22.1 nM
Kd [4]: 1630 nM
Kd [5]: 67.9 nM
